The values that follow come from patent US20240218011A1 (FIREFLY BIO, published 2024).

The test concerns the target human LPAM1 (human, UniProt P26010 20-798). In words: cell-based or functional assay.

human LPAM1, sequence (P26010 20-798): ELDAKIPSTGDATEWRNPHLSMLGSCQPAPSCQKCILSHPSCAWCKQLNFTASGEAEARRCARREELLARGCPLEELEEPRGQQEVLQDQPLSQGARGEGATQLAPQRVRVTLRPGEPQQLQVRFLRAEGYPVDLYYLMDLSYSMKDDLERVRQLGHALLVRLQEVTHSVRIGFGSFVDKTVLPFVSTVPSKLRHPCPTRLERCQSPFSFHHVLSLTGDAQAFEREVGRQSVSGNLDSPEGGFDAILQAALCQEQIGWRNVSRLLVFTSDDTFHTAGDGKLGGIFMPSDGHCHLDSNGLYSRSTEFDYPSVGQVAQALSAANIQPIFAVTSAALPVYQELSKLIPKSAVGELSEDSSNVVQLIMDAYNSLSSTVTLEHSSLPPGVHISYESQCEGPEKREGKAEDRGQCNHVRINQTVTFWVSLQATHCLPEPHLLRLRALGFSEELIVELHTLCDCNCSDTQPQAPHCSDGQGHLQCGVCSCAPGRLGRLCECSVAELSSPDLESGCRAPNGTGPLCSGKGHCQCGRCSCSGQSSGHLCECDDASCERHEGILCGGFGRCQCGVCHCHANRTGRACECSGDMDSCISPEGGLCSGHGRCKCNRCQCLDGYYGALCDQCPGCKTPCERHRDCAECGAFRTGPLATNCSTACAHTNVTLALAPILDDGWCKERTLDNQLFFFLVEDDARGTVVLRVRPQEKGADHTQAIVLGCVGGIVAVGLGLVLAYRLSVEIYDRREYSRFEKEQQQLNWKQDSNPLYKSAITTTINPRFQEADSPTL

B1: Anti-LPAM-1-Linker 1-Bud (vedolizumab conjugated to GR agonist budesonide with Linker 1) (antibody, human IgG1, kappa, V domains shown)
VH: QVQLVQSGAEVKKPGASVKVSCKGSGYTFTSYWMHWVRQAPGQRLEWIGEIDPSESNTNYNQKFKGRVTLTVDISASTAYMELSSLRSEDTAVYYCARGGYDGWDYAIDYWGQGTLVTVSS
VL: DVVMTQSPLSLPVTPGEPASISCRSSQSLAKSYGNTYLSWYLQKPGQSPQLLIYGISNRFSGVPDRFSGSGSGTDFTLKISRVEAEDVGVYYCLQGTHQPYTFGQGTKVEIKR
modifications: budesonide attached through Linker 1; residues and chain not stated
Take B1: the “Fold induction Anti-LPAM1 conjugate at 0.0064 nM; luciferase reporter” value was found to be 1 fold, the “Fold induction Anti-LPAM1 conjugate at 0.032 nM; luciferase reporter” value turned out to be 1 fold, the “Fold induction Anti-LPAM1 conjugate at 0.16 nM; luciferase reporter” value stood at 20 fold and the “Fold induction Anti-LPAM1 conjugate at 0.8 nM; luciferase reporter” value turned out to be 121 fold. In addition, the “Fold induction Anti-LPAM1 conjugate at 4 nM; luciferase reporter” value was 147 fold, the “Fold induction Anti-LPAM1 conjugate at 20 nM; luciferase reporter” value came out at 177 fold, the “Fold induction Anti-LPAM1 conjugate at 100 nM; luciferase reporter” value worked out at 240 fold and the “Fold induction Anti-LPAM1 conjugate at 500 nM; luciferase reporter” value stood at 361 fold.
